Substrate in the data set: O=C(O)C1=C[C@@H](O)[C@@H](O)[C@H](O)C1
Put plainly: purified protein. Format: biochemical, Marchantia polymorpha. The following applies: 2.5 mM ATP, 1 mM MgCl2, 50 mM Tris-HCl pH 7.5, 200 mM NaCl, 30 °C, shikimate 0-3 mM.

In article PMC12203367, “Shikimate Kinase-Like 1 Participates in an Ancient and Conserved Role Contributing to Chloroplast Biogenesis in Land Plants” (Molecular Biology and Evolution, 2025) one finds Km and kcat data, which are given here for 1 protein.

B1: MpSK (Δ113MpSK) (Marchantia polymorpha) (protein)
chain: QYSLELQEDEELLKKKAALVVQQLAGSCIFLVGMMGSGKTTVGKHVSEALGYYFFDSDKLVEESRGKTVAEMFRYGREEEFRNAESEVLEQLSSMVRLVVATGGGAVVRPENWSYLRHGITVWLDVPVDSLAERVVAVGCHSRPLLGVQAHDSAYKQALERLTHILQERADFYASADAVVSVEELARKRGQDINSITPTMIAVQVLEEISKMLERGDRDPSLQY
notes: N-terminal 113 residues (predicted chloroplast transit peptide) removed; cloned from Tak-2 cDNA; pET28a-MOD, C-terminal His6 cleaved by TEV; E. coli BL21-CodonPlus
Broadly, the Km is the concentration of substrate that gives half-maximal velocity. What is called kcat is the number of substrate molecules converted per active site and unit of time at saturation. For the protein B1, the Km came to 782.5 µM and the kcat stood at 1.0 s⁻¹.
